± gives the uncertainty stated by the source.
Assay: self-splicing fitness, log relative to wild type (ln ratio); higher = more splicing; Tetrahymena group I intron in knt gene, E. coli kanamycin selection, DiMSum; sequences stand for … in CUCUCU…GGAGGGAAAAGUUAUCAGGCAUGCACCUGGUAGCUAGUCUUUAAACCAAUAGAUUGCAUCGGUUUAAAAGGCAAGACCGUCAAAUUGCGGGAAAGGGGUCAACAGCCGUUCAGUACCAAGUCUCAGGGGAAACUUUGAGAUGGCCUUGCAAAGGGUAUGGUAAUAAGCUGACGGACAUGGUCCUAACCACGCAGCCAAGUCCUAAGUCAACAGAUCUUCUGUUGAUAUGGAUGCAGUUCACAGACUAAAUGUCGGUCGGGGAAGAUGUAUUCUUCUCAUAAGAUAUAGUCGGACCUCUCCUUAAUGGGAGCUAGCGGAUGAAGUGAUGCAACACUGGAGCCGCUGGGAACUAAUUUGUAUGCGAAAGUAUAUUGAUUAGUUUUGGAGUACUCGUGGUCG
Outline: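 Colonies from six replicate transformations of E. coli BL21(DE3) were pooled and amplicon-sequenced on an Illumina HiSeq 2500. The library placed an intron with all eight P1ex-region nucleotides randomised inside the knt kanamycin-resistance gene on pET-22b(+), and cells grew overnight at 37°C or 30°C on LB agar with or without 25 μg/mL kanamycin (plus 100 μg/mL carbenicillin, 50 μM IPTG, 0.2% rhamnose). Fitness is the DiMSum error-weighted combination of wild-type-normalised replicate fold changes, kanamycin versus none.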

| Sequence | self-splicing fitness (ln) (30 °C) | self-splicing fitness (ln) (37 °C) |
| --- | --- | --- |
| ACGGAGCAAUAUUACGACCU | -1.69 ± 0.2 | -1.34 ± 0.25 |
| ACGGAGCAAUAUUACGACGC | -1.26 ± 0.15 | -1.11 ± 0.17 |
| ACGGAGCAAUAUUACGAGAC | -0.64 ± 0.18 | – |
| ACGGAGCAAUAUUACGAUCU | -2.61 ± 0.14 | -1.37 ± 0.11 |
| ACGGAGCAAUAUUACGAUGC | -3.69 ± 0.43 | -1.74 ± 0.29 |
| ACGGAGCAAUAUUACGCAUU | -3.43 ± 0.43 | -2.85 ± 0.34 |
| ACGGAGCAAUAUUACGCGUU | – | -1.9 ± 0.21 |
| ACGGAGCAAUAUUACGCUCA | -1.04 ± 0.19 | -0.0662 ± 0.3 |
| ACGGAGCAAUAUUACGCUGG | -3.77 ± 0.29 | -1.2 ± 0.18 |
| ACGGAGCAAUAUUACGGAAU | -1.57 ± 0.39 | -2.5 ± 0.45 |
| ACGGAGCAAUAUUACGGAUA | -3.27 ± 0.33 | -2.61 ± 0.42 |
| ACGGAGCAAUAUUACGGAUG | -2.66 ± 0.31 | -1.17 ± 0.28 |
| ACGGAGCAAUAUUACGGCCU | -2.12 ± 0.17 | -1.2 ± 0.21 |
| ACGGAGCAAUAUUACGGUAA | -2.95 ± 0.49 | -3.1 ± 0.28 |
| ACGGAGCAAUAUUACGGUCA | -3.14 ± 0.3 | -1.35 ± 0.18 |
| ACGGAGCAAUAUUACGGUGU | -3.78 ± 0.2 | -2.35 ± 0.16 |
| ACGGAGCAAUAUUACGUAAA | – | -1.27 ± 0.35 |
| ACGGAGCAAUAUUACGUAGA | -4.18 ± 0.31 | -2.41 ± 0.24 |
| ACGGAGCAAUAUUACGUAGG | -3.48 ± 0.26 | – |
| ACGGAGCAAUAUUACGUAUA | -2.42 ± 0.18 | -1.86 ± 0.25 |
| ACGGAGCAAUAUUACGUGCG | -2.63 ± 0.17 | -1.79 ± 0.18 |
| ACGGAGCAAUAUUACGUUGG | -3.62 ± 0.23 | -2.05 ± 0.17 |

| Sequence | self-splicing fitness (ln) (30 °C) | self-splicing fitness (ln) (37 °C) |
| --- | --- | --- |
| ACGUAGCAAUAUUACGAAAU | -2.28 ± 0.19 | -1.3 ± 0.26 |
| ACGUAGCAAUAUUACGAACC | -1.44 ± 0.11 | -0.279 ± 0.15 |
| ACGUAGCAAUAUUACGACGA | 0.179 ± 0.11 | -0.0557 ± 0.12 |
| ACGUAGCAAUAUUACGAGAG | -2.93 ± 0.14 | -2.97 ± 0.23 |
| ACGUAGCAAUAUUACGAGGA | -2.78 ± 0.33 | -2.75 ± 0.38 |
| ACGUAGCAAUAUUACGCAAC | -2.74 ± 0.31 | -2.17 ± 0.35 |
| ACGUAGCAAUAUUACGCACU | -1.46 ± 0.18 | -0.549 ± 0.23 |
| ACGUAGCAAUAUUACGCCCC | -1.38 ± 0.27 | -1.28 ± 0.29 |
| ACGUAGCAAUAUUACGCCUU | -1.42 ± 0.064 | -0.00228 ± 0.076 |
| ACGUAGCAAUAUUACGCGCG | -1.28 ± 0.15 | -0.103 ± 0.18 |
| ACGUAGCAAUAUUACGCUCA | -0.72 ± 0.12 | 0.189 ± 0.11 |
| ACGUAGCAAUAUUACGGACA | -1.1 ± 0.083 | -0.739 ± 0.092 |
| ACGUAGCAAUAUUACGGCCC | -0.341 ± 0.15 | 0.0459 ± 0.25 |
| ACGUAGCAAUAUUACGGGAA | -1.95 ± 0.2 | -3.19 ± 0.37 |
| ACGUAGCAAUAUUACGGGGG | -3.84 ± 0.2 | -2.44 ± 0.16 |
| ACGUAGCAAUAUUACGGGUA | -1.29 ± 0.13 | -0.928 ± 0.12 |
| ACGUAGCAAUAUUACGGGUU | -3.54 ± 0.2 | -2.07 ± 0.21 |
| ACGUAGCAAUAUUACGGUUA | -0.772 ± 0.091 | -0.0368 ± 0.092 |
| ACGUAGCAAUAUUACGUCAG | -3.39 ± 0.18 | -2.34 ± 0.2 |
| ACGUAGCAAUAUUACGUGGG | -3.6 ± 0.16 | -3.07 ± 0.18 |
| ACUAAGCAAUAUUACGACUU | -0.429 ± 0.093 | 0.924 ± 0.12 |

From the supplement of paper PMC7877785
